Reference: the RNAGym collection of RNA variant scans (doi:10.7554/elife.90254)

B1: LINE1-full (parent)
chain: UACGUAGGUGGUUUUCCCCUGAUAGUGCUAAGGGGGCCUGGAAGUUUGGACUGGGCAGAGCUCAACACAGCGUGGCAAAGUGGCUGUGGCUAGACUGCCUCUCUGGAUUCCUCGUCACUCAGCAGGGCAUCUCUGAGAGAAAUGCC

Variants of: B1
Test: self-cleavage, relative activity (ratio to wild type); higher = more cleavage; in vitro, sequencing; the parent is a self-cleaving ribozyme

Row | Variant | self-cleavage
1 | U39A G93A | 0.04
2 | A42G U85G | 0.26
3 | A42G U85C | 0.38
4 | G40A U87A | 0.06
5 | G40U U52A | 0.99
6 | A42G A78G | 1.49
7 | A42G A57U | 0.14
8 | A42G A57G | 0.95
9 | U39A A142G | 1.53
10 | G40A A78G | 0.77
11 | G41A A43G | 0.44
12 | G41A A43C | 0.25
13 | G40U U100C | 0.46
14 | G40U U100A | 0.89
15 | G41U A117U | 1.24
16 | G41A G60U | 0.04
17 | A42G C103A | 1.49
18 | U39C A117C | 1.84
19 | U39C G80A | 1.06
20 | U39G U46C | 1.36
21 | A42G U96A | 0.03
22 | U39C U45C | 1.54
23 | U39A G88A | 0.08
24 | A42G U52A | 1.52

Row | Variant | self-cleavage
25 | A42G U52C | 1.17
26 | U39C A79G | 1.21
27 | U39C A79C | 2.53
28 | A42U A94U | 0.15
29 | A42U A94G | 0.24
30 | A42C U119C | 0
31 | U39A G70U | 0.05
32 | A42G G144U | 1.65
33 | A42G A124U | 1.35
34 | A42G U46C | 1.49
35 | U39A G86A | 0.08
36 | U39C A77G | 1.93
37 | U39C C128U | 1.16
38 | A42G A138G | 1.34
39 | A42G A138U | 1.6
40 | A42G A129C | 2.1
41 | A42G A129U | 1.75
42 | A42G U130C | 1.57
43 | A42G U130A | 1.47
44 | A42C A92G | 0.15
45 | A42G A92G | 0.15
46 | A42G A92U | 0.72
47 | A42G U119A | 0.95
48 | U39C C71U | 0.31

Row | Variant | self-cleavage
49 | A42G G114A | 1.48
50 | A42U A57U | 0.04
51 | A42U A57G | 0.63
52 | A42C G54A | 0.13
53 | U39C A43G | 1.38
54 | U39C U52A | 1.4
55 | U39C U52C | 0.37
56 | G40U A65G | 0.04
57 | U39C U102C | 0.99
58 | U39C A138G | 1.29
59 | U39C A138U | 1.29
60 | A42G U73A | 1.52
61 | A42G G72A | 1.11
62 | A42G G72U | 1.38
63 | U39C A67G | 0.35
64 | U39C A67U | 0.16
65 | G41A U134A | 0.89
66 | G41A U134C | 1.15
67 | G41A U134G | 0.98
68 | G40A A50U | 0.84
69 | U39A C128G | 1.62
70 | A42G U102A | 1.38
71 | G41U A65G | 0.03
72 | U39C C61G | 0.07

Row | Variant | self-cleavage
73 | G40U U132C | 2.4
74 | G40U U132A | 1.31
75 | A42G C99A | 0.94
76 | U39G U115A | 1.31
77 | U39C C113G | 1.71
78 | U39C C113A | 0.33
79 | A42G U104G | 0.8
80 | G41C U104G | 1.58
81 | G40A U100C | 1.59
82 | G41A A117G | 1.53
83 | G40A U85G | 0.04
84 | U39C G137A | 1.09
85 | U39A U73A | 1.76
86 | U39A U73C | 1.38
87 | A42G G58A | 0
88 | U39A U85C | 0.19
89 | U39A U85G | 0.28
90 | U39A U85A | 0.11
91 | U39C A69C | 0.11
92 | U39C A69U | 0.06
93 | G40A A142G | 0.79
94 | U39A C111A | 1.55
95 | A42U A43G | 1.51
96 | A42U A43U | 0.84

Row | Variant | self-cleavage
97 | G40A A129G | 1.42
98 | G40A A129U | 0.46
99 | U39A U91A | 0.56
100 | G41A U87C | 0.26
101 | U39G A136G | 1.65
102 | U39C A64G | 0.24
103 | U39C U81A | 1.44
104 | U39C U81C | 1.45
105 | A42G U108C | 1.55
106 | G41A A79G | 1
107 | G41A A79U | 1.28
108 | U39A U134A | 0.9
109 | A42G U134G | 1.68
110 | A42G U134A | 0.93
111 | A42G G80A | 2.61
112 | U39C G135A | 1.2
113 | U39G A121G | 1.23
114 | U39A G49A | 1.06
115 | A42G A69G | 0.54
116 | U39C U47C | 1.91
117 | A42G G55A | 0.29
118 | G40A G60U | 0.02
119 | G40A U132C | 1.03
120 | A42G C120A | 1.54

Row | Variant | self-cleavage
121 | A42G C120U | 0.67
122 | U39G A77G | 1.53
123 | A42C A67G | 0.52
124 | A42G C51U | 1.28
125 | G41A A138G | 1.25
126 | U39A G48A | 1.22
127 | A42G G53A | 1.36
128 | U39C A141U | 2.2
129 | U39C U134G | 1.39
130 | U39C U134A | 0.86
131 | U39C U134C | 1.5
132 | U39G U52A | 1.16
133 | A42G A65G | 0.14
134 | A42G A65C | 0.07
135 | G40A A117U | 1.43
136 | U39C G83A | 0.2
137 | U39A G80A | 2.24
138 | G40A A65G | 0.04
139 | A42G U132C | 1.48
140 | A42G U132A | 1.8
141 | A42G G125A | 1.25
142 | A42G A117U | 1.33
143 | G40U U47A | 1.86
144 | U39C U109A | 1.15

Row | Variant | self-cleavage
145 | A42G A64U | 0.52
146 | G40A A141G | 1.06
147 | U39G U102C | 1.34
148 | U39A U102C | 1.72
149 | U39A C66U | 0.05
150 | G40U A43G | 1.11
151 | G40A U52A | 1.25
152 | G40A U52C | 1.23
153 | A42C A142G | 1.23
154 | A42C A107U | 1.04
155 | A42G A79G | 1.37
156 | A42G A79U | 1.57
157 | U39G U96C | 0.11
158 | U39A C98U | 0.45
159 | U39C U108A | 1.22
160 | A42C U100C | 1.25
161 | U39C U104G | 0.93
162 | U39C U104A | 0.89
163 | G41A U130A | 1.57
164 | U39C G54A | 0.58
165 | U39C G54U | 0.39
166 | U39A G135U | 1.99
167 | U39A G135A | 1.57
